This passage reports koff and Kd results from publication PMC5761276 (Journal of the American Chemical Society, 2017).

In assay [1] the target is T1, Grb2-Alexa Fluor 647 (UniProt P62993 1-217, Alexa Fluor 647 (site not stated)). The assay is described as follows: single-molecule dwell time analysis.
The target in assay [2] is T1, Grb2-Alexa Fluor 647. Nature of the assay: ITC. (In general: In ITC the heat of successive injections is recorded.)

T1 sequence (P62993 whole entry): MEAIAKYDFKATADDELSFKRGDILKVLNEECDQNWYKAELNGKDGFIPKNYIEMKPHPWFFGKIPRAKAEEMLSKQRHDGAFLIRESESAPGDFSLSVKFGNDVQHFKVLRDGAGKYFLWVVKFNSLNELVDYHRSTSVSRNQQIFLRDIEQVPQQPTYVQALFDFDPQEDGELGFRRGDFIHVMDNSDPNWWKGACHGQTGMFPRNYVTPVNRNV

B1: LAT-FFFY (monovalent LAT1Y, residue 48-233), phosphorylated (domain or fragment)
chain: GIQFKRPHTVAPWPPAFPPVTSFPPLSQPDLLPIPRSPQPLGGSHRTPSSRRDSDGANSVASFENEEPACEDADEDEDDFHNPGFLVVLPDSTPATSTAAPSAPALSTPGIRDSAFSMESIDDFVNVPESGESAEASLDGSREFVNVSQELHPGAAKTEPAALSSQEAEEVEEEGAPDYENLQELN
modifications: phosphotyrosine at Y226; Alexa Fluor 568 (site not stated)
In turn, B1 displayed a dissociation rate constant (koff) with Grb2-Alexa Fluor 647 [1] of 1.4 s⁻¹. The same molecule had a dissociation constant (Kd) with Grb2-Alexa Fluor 647 [2] of 0.459 µM.

B2: LAT-FFYF (monovalent LAT1Y, residue 48-233), phosphorylated (domain or fragment)
chain: GIQFKRPHTVAPWPPAFPPVTSFPPLSQPDLLPIPRSPQPLGGSHRTPSSRRDSDGANSVASFENEEPACEDADEDEDDFHNPGFLVVLPDSTPATSTAAPSAPALSTPGIRDSAFSMESIDDFVNVPESGESAEASLDGSREYVNVSQELHPGAAKTEPAALSSQEAEEVEEEGAPDFENLQELN
modifications: phosphotyrosine at Y191; Alexa Fluor 568 (site not stated)
With B2, the koff with Grb2-Alexa Fluor 647 [1] was found to be 3.3 s⁻¹. Also, the dissociation constant Kd with Grb2-Alexa Fluor 647 [2] worked out at 0.195 µM.

For orientation: koff means the first-order rate constant of dissociation. Broadly, the Kd is the free concentration of one partner at which half of the binding sites on the other are occupied at equilibrium, for simple one-to-one binding. A low value points to tighter binding.
